The values that follow come from publication PMC5034325.

The target of this assay is human taste receptor T1R2-T1R3 (human) (UniProt Q8TE23).
UniProt Q8TE23, sequence (Q8TE23 20-839, chain 1 of 2): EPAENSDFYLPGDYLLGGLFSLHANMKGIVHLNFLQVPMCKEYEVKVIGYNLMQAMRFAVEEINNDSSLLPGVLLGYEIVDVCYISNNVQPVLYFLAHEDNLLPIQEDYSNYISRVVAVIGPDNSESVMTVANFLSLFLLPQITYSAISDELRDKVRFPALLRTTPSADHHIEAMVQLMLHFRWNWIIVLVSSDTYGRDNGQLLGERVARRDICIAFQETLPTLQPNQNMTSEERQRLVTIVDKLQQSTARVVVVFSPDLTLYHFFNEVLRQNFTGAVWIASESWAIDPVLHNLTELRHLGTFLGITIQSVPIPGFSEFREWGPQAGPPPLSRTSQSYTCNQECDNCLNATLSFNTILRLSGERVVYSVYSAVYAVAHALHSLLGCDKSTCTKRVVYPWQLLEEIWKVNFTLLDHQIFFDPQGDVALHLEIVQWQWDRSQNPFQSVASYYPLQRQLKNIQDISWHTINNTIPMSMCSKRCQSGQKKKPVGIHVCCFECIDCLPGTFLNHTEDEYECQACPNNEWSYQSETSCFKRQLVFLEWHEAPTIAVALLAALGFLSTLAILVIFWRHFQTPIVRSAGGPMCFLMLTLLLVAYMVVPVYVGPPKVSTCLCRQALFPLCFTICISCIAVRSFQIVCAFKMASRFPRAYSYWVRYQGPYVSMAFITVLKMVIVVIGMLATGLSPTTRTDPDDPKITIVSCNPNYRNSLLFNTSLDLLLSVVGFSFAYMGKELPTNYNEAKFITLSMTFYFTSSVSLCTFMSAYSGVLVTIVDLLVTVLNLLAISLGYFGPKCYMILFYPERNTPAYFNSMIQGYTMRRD
UniProt Q8TE23, sequence (Q7RTX0 21-852, chain 2 of 2, further chain): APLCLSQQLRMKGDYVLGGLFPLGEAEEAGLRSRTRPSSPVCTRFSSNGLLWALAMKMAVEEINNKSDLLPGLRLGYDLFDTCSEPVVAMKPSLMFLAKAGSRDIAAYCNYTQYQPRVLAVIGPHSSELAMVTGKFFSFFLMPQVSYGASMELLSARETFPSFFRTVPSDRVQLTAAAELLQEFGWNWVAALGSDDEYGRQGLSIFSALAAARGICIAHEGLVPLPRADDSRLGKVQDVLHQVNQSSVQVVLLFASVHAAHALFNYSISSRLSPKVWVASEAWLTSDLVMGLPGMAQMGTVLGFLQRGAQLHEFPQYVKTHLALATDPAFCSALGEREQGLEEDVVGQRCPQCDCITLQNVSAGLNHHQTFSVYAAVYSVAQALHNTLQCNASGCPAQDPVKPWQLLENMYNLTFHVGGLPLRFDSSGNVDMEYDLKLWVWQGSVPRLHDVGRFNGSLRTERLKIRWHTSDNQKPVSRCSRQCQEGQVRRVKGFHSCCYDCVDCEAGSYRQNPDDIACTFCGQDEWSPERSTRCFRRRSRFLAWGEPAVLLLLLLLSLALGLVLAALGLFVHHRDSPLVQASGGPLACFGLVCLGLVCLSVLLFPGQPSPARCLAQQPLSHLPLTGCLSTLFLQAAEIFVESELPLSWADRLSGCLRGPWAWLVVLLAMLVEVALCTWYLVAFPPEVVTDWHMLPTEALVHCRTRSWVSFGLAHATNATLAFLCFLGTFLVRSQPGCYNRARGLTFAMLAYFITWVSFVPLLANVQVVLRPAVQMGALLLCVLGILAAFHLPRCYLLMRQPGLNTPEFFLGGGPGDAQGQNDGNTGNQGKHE

In the case of “E23Q, Q28K, C41S, Y65R-MNEI (Mut3) (ligand)”, the sweetness threshold, triangle test by a panel of tasters, 5 to 500 nM (also printed as 0.28 mg/L) stood at 25 nM. Y65R-MNEI (ligand) returned a sweetness threshold, triangle test by a panel of tasters, 5 to 500 nM (also printed as 0.62 mg/L) of 55 nM.

“C41S, Y65R, S67K, D68N-MNEI (Mut1) (ligand)” yielded a sweetness threshold, triangle test by a panel of tasters, 5 to 500 nM (also printed as 2.50 mg/L) of 223 nM. Take Q28K, C41S, Y65R-MNEI (Mut2) (ligand): the sweetness threshold, triangle test by a panel of tasters, 5 to 500 nM (also printed as 0.40 mg/L) stood at 36 nM.
